Results reported in patent US20220073621A1 (EUCURE BEIJING BIOPHARMA, published 2022).
Changes are numbered by the printed parent chain. Names and notes keep the numbering of the source.

B1: 6A11-H2K3-IgG1 (antibody, V domains shown)
VH: EVQLVESGGGLVQPGGSLRLSCAASGFTFSSFGMHWVRQAPGKGLEWVSYISSGSNTIYYADTVKGRFTISRDNAKNSLYLQMNSLRAEDTAVYYCTRNGYDGWYAMDYWGQGTTVTVSS
VL: EIVLTQSPATLSASPGERATLSCSASSSVSYIHWFQQKPGQSPRRWIYDTSKLASGIPARFSGSGSGTDYTLTISSMEPEDFATYYCQQWSTNPFTFGQGTKLEIKR
B2: 6A11-H3K4-IgG1 (antibody, V domains shown)
VH: B1 VH with L18R, S49A
VL: B1 VL with D69S, F82A
B3: 6A11-H1K3-IgG1 (antibody, V domains shown)
VH: B1 VH with T97A
VL: B1 VL
B4: 6A11-H3K3-IgG1 (antibody, V domains shown)
VH: B1 VH with L18R, S49A
VL: B1 VL
B5: 6A11-H1K4-IgG1 (antibody, V domains shown)
VH: B1 VH with T97A
VL: B1 VL with D69S, F82A
B6: 6A11-H2K4-IgG1 (antibody, V domains shown)
VH: B1 VH
VL: B1 VL with D69S, F82A
B7: 3F2-H2K2-IgG1 (antibody, V domains shown)
VH: DVQLQESGPGLVKPSETLSLTCTVSGYSITSGYNWHWIRQFPGNGLEWMGYIHHSSITNYNPSLKSRITISRDTSKNQFSLKLSSVTAADTATFYCAREGYDYDWFAYWGQGTLVTVSS
VL: DIVLTQSPDFQSVTPKEKVTLSCRASQSISNNLHWYQQKPDESPKLLIKYASQSISGIPSRFSGSGSGTDFTLTINSVEAEDFAMYFCQQSKSWPFTFGQGTRLEIK
B8: 3F2-H1K3-IgG1 (antibody, V domains shown)
VH: B7 VH with D1Q, F94Y
VL: B7 VL with F10T, K18S, P40S, D41H
B9: 3F2-H2K1-IgG1 (antibody, V domains shown)
VH: B7 VH
VL: B7 VL with L21I, S22T
B10: 3F2-H1K1-IgG1 (antibody, V domains shown)
VH: B7 VH with D1Q, F94Y
VL: B7 VL with L21I, S22T
B11: 3F2-H2K3-IgG1 (antibody, V domains shown)
VH: B7 VH
VL: B7 VL with F10T, K18S, P40S, D41H
B12: 3F2-H1K2-IgG1 (antibody, V domains shown)
VH: B7 VH with D1Q, F94Y
VL: B7 VL
B13: 3F2-H3K1-IgG1 (antibody, V domains shown)
VH: B7 VH with A89E
VL: B7 VL with L21I, S22T
B14: 3F2-H3K3-IgG1 (antibody, V domains shown)
VH: B7 VH with A89E
VL: B7 VL with F10T, K18S, P40S, D41H
B15: 3F2-H4K3-IgG1 (antibody, V domains shown)
VH: B7 VH with G45K, S80F, K82Q, A89E
VL: B7 VL with F10T, K18S, P40S, D41H
B16: 3F2-H3K2-IgG1 (antibody, V domains shown)
VH: B7 VH with A89E
VL: B7 VL
B17: 3F2-H4K2-IgG1 (antibody, V domains shown)
VH: B7 VH with G45K, S80F, K82Q, A89E
VL: B7 VL
B18: 3F2-H4K1-IgG1 (antibody, V domains shown)
VH: B7 VH with G45K, S80F, K82Q, A89E
VL: B7 VL with L21I, S22T
B19: 07-6A11-mHvKv-IgG1 (antibody, V domains shown)
VH: DVQLVESGGGLVQPGGSRKLSCAASGFTFSSFGMHWVRQAPEKGLEWVAYISSGSNTIYYADTVKGRFTISRDNPKNTLFLQMTSLRSEDTAIYYCTRNGYDGWYAMDYWGQGTSVTVSS
VL: QIVLTQSPAIMSASPGEKVTMTCSASSSVSYIHWFQQKSGTSPKRWIYDTSKLASGVPARFSGRGSGTSYSLTISSMEAEDAATYYCQQWSTNPFTFGSGTKLEIK
B20: 08-3F2-mHvKv-IgG1 (antibody, V domains shown)
VH: DVQLQESGPDLVKPSQTLSLTCTVTGYSITSGYNWHWIRQFPGNKLEWMGYIHHSSITNYNPSLKSRISITRDTSKNQFFLQLSSVTTEDTATFYCAREGYDYDWFAYWGQGTLVTVSA
VL: DIVLAQSPATLSVTPGDSVSLSCRASQSISNNLHWYQQKSHESPRLLIKYASQSISGIPSRFSGSGSGTDFTLSINSVETEDFGMYFCQQSKSWPFTFGSGTRLEIK
B21: 23-2A6-mHvKv-IgG1-N297A (antibody, V domains shown)
VH: QVQLKESGPGLVAPSQSLSITCTVSGFSLTSYDISWIRQPPGKGLEWLGAIWTGGGTNYNSAFMSRLSISKDNSKSQVFLKMNSLQTDDTAIYYCVRDPYYYAMDYWGQGTSVTVSS
VL: DIQMNQSPSSLSASLGDTITITCHASQNLNVWLSWYQQKPGNIPKLLIYKASNLHTGVPSRFSGSGSGTGFTLTISSLQPEDIATYYCQQGQSYPRTFGGGTKLEIK
B22: 17-7E4-mHvKv-IgG1 (antibody, V domains shown)
VH: QVQLQQSGAELVRPGVSVKISCKGSGFKFTDYAIHWVKQSHAKSLEWIGVISIYYGEASYNQKFKDKATLTVDTSSSTAYMELARLTSEDSAIYYCAREDYYGSSSYFDYWGQGTALTVSS
VL: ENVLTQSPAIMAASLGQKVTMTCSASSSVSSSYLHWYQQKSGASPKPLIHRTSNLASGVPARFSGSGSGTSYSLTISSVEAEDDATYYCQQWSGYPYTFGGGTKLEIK
B23: 33-10C9-mHvKv-IgG1-N297A (antibody, V domains shown)
VH: QVQLQQPGAELVKPGSSVKLSCKASGYTFTTYYIYWVKQRPGQGLEWIGGINPYNGGTSFNEKFESKATLTVDISSSTAFMQLSSLTSEDSAVYYCTRDGNYVDYWGQGTTLTVSS
VL: QIVLTQSPAIMSASPGEKVTITCSASSTVSYVHWLQQKPDTSPKLWIYSTSNLASGVPARFSGSGSGTSYSLTISRMEAEDAATYYCQQRSSSPPTFGSGTKLEIK

molecular target: T1, hPD-L1-His (human, UniProt Q9NZQ7 19-238); assay: SPR (Biacore T200), antibody on Protein A chip, hPD-L1-His injected, 1:1 fit
T1 construct: Bought protein; also called hPD-L1-His (manufactured by Edison); not shown: His tag
Protocol: Subsequently, the binding affinity of the anti-PD-L1 chimeric antibody, humanized antibody, and marketed control antibody to hPD-L1-His (manufactured by Edison) were determined by surface plasmon resonance (Biacore T200 biosensor, Biacore, INC, Piscataway N.J.) equipped with pre-immobilized Protein A sensor chips.
The detection results were read after the chip was regenerated with pH 2.0 glycine (30 μl/min, 10-20 s). Kinetic association rates (kon) and dissociation rates (koff) were obtained simultaneously by fitting the data globally to a 1:1 Langmuir binding model (Karlsson, R. Roos, H. Fagerstam, L. Petersson, B., 1994. Methods Enzymology 6. 99-110) using Biacore T200 Evaluation Software 3.0. Affinities were deduced from the quotient of the kinetic rate constants (KD=koff/kon).

T1 sequence (Q9NZQ7 19-238 limits assumed): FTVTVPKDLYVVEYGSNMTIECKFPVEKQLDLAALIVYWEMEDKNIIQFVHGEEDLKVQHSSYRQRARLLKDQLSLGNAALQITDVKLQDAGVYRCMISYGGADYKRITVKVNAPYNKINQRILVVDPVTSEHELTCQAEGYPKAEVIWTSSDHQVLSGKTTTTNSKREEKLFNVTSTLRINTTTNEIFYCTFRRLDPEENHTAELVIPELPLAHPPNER

Q: B1 was tested. Which Kd did it give?
A: 8.07 nM

Q: What about the koff of the same binder?
A: 0.0013 s⁻¹

Q: And the kon?
A: 162000 M⁻¹ s⁻¹

Q: B2 was tested. Which Kd did it give?
A: 6.52 nM

Q: What about the koff of the same binder?
A: 0.00168 s⁻¹

Q: What about the kon of the same binder?
A: 258000 M⁻¹ s⁻¹

Q: How did the Kd turn out when B3 was run?
A: 7.8 nM

Q: And the koff?
A: 0.00113 s⁻¹

Q: And the kon?
A: 145000 M⁻¹ s⁻¹

Q: How did the Kd turn out when B4 was run?
A: 4.91 nM

Q: What about the koff of the same binder?
A: 0.0013 s⁻¹

Q: And the kon?
A: 265000 M⁻¹ s⁻¹

Q: With B5 as the binder, how does the Kd read?
A: 8.29 nM

Q: What about the koff of the same binder?
A: 0.00124 s⁻¹

Q: What about the kon of the same binder?
A: 149000 M⁻¹ s⁻¹

Q: B6 was tested. Which Kd did it give?
A: 7.01 nM

Q: And the koff?
A: 0.00153 s⁻¹

Q: What about the kon of the same binder?
A: 218000 M⁻¹ s⁻¹

Q: With B7 as the binder, how does the Kd read?
A: 0.81 nM

Q: And the koff?
A: 0.000946 s⁻¹

Q: And the kon?
A: 1.17e+06 M⁻¹ s⁻¹

Q: With B8 as the binder, how does the Kd read?
A: 0.805 nM

Q: What about the koff of the same binder?
A: 0.000874 s⁻¹

Q: And the kon?
A: 1.09e+06 M⁻¹ s⁻¹

Q: With B9 as the binder, how does the Kd read?
A: 0.7 nM

Q: What about the koff of the same binder?
A: 0.000792 s⁻¹

Q: And the kon?
A: 1.13e+06 M⁻¹ s⁻¹

Q: B10 was tested. Which Kd did it give?
A: 0.787 nM

Q: What about the koff of the same binder?
A: 0.000772 s⁻¹

Q: What about the kon of the same binder?
A: 981000 M⁻¹ s⁻¹

Q: For B11, which Kd is on record?
A: 0.758 nM

Q: And the koff?
A: 0.000881 s⁻¹

Q: And the kon?
A: 1.16e+06 M⁻¹ s⁻¹

Q: How did the Kd turn out when B12 was run?
A: 0.69 nM

Q: What about the koff of the same binder?
A: 0.000732 s⁻¹

Q: And the kon?
A: 1.06e+06 M⁻¹ s⁻¹

Q: Which results are given for B13?
A: Kd: 0.699 nM; koff: 0.000793 s⁻¹; kon: 1.13e+06 M⁻¹ s⁻¹

Q: With B14 as the binder, how does the Kd read?
A: 0.625 nM

Q: What about the koff of the same binder?
A: 0.000827 s⁻¹

Q: And the kon?
A: 1.32e+06 M⁻¹ s⁻¹

Q: For B15, which Kd is on record?
A: 0.502 nM

Q: What about the koff of the same binder?
A: 0.000696 s⁻¹

Q: What about the kon of the same binder?
A: 1.39e+06 M⁻¹ s⁻¹

Q: What does the source list for B16?
A: Kd: 0.623 nM; koff: 0.000753 s⁻¹; kon: 1.21e+06 M⁻¹ s⁻¹

Q: B17 was tested. Which Kd did it give?
A: 0.475 nM

Q: What about the koff of the same binder?
A: 0.000617 s⁻¹

Q: What about the kon of the same binder?
A: 1.3e+06 M⁻¹ s⁻¹

Q: How did the Kd turn out when B18 was run?
A: 0.471 nM

Q: And the koff?
A: 0.000626 s⁻¹

Q: What about the kon of the same binder?
A: 1.33e+06 M⁻¹ s⁻¹

Q: What does the source list for B19?
A: Kd: 3.57 nM; koff: 0.0009 s⁻¹; kon: 252000 M⁻¹ s⁻¹

Q: How did the Kd turn out when B20 was run?
A: 0.266 nM

Q: And the koff?
A: 0.00043 s⁻¹

Q: And the kon?
A: 1.62e+06 M⁻¹ s⁻¹

Q: B21 was tested. Which Kd did it give?
A: 4.64 nM

Q: And the koff?
A: 0.00266 s⁻¹

Q: And the kon?
A: 573000 M⁻¹ s⁻¹

Q: What does the source list for B22?
A: Kd: 5.33 nM; koff: 0.000805 s⁻¹; kon: 151000 M⁻¹ s⁻¹

Q: How did the Kd turn out when B23 was run?
A: 1.6 nM

Q: And the koff?
A: 0.000196 s⁻¹

Q: What about the kon of the same binder?
A: 122000 M⁻¹ s⁻¹
